This note sets out measurements from publication PMC9335864 (Journal of the American Chemical Society, 2022).

Read-outs that look alike come from different tables or passages of the source.

One assay has as its target full-length human p97 (human, UniProt P55072 1-806, biotin (site not stated)). Nature of the assay: SPR; competition: as for p47-UBX but with full-length p47 on immobilised p97 (Figure S7). The settings on record: both partners purified.
Another assay addresses full-length p47 (human, UniProt Q9UNZ2). Described as above. The settings on record: both partners purified.
The target in assay [1] is T1, p47-UBX domain (Homo sapiens, biotin (site not stated) where anchored on the BLI sensor tip).
T1 chain: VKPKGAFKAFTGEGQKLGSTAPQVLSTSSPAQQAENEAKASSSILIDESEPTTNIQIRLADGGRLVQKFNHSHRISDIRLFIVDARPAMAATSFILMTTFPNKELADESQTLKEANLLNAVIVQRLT
Nature of the assay: SPR; competition: biotinylated full-length p97 on a streptavidin chip; mixture of increasing concentrations of scFv and a fixed concentration of p47-UBX flowed over; with 100 uM ATP or 100 uM ADP. The settings on record: both partners purified.

The target of assay [2] is T1, p47-UBX domain.
For the next assay, the target named is T2, p37-UBX domain (Homo sapiens).
T2 chain: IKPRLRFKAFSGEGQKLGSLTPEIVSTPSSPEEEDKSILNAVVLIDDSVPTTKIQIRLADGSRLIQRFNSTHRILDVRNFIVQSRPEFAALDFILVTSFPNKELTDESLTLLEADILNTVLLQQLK
Nature of the assay: BLI; selectivity of the scFvs against the p97-binding domains of other adaptor proteins (NPL4-UBXL, FAF1-UBX, p37-UBX) beside p47-UBX; set-up not told in the main text. As to conditions: both partners purified.

Assay [3] has as its target T1, p47-UBX domain. Nature of the assay: BLI; biotinylated p47-UBX anchored on the sensor tip; increasing amounts of each scFv; dose-response profiles. The settings on record: both partners purified.
In the next assay the target is p47 (endogenous) (human (endogenous in U2OS), UniProt Q9UNZ2). Nature of the assay: co-IP; co-IP of p47 from lysates of U2OS cells transfected with plasmids for HA-tagged antibody fragments; p47-containing complexes captured and blotted. The settings on record: partners not purified.
The target in assay [4] is T3, C-terminal Halo-tagged p47-UBX domain (Homo sapiens).
T3 chain: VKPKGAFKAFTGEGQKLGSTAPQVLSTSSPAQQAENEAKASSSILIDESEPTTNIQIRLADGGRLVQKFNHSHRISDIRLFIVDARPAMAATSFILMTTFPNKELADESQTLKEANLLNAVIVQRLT
Nature of the assay: FRET or BRET; NanoBRET in p47-knockout U2OS cells: Nanoluciferase-p97-N donor, p47-UBX-HaloTag acceptor, co-transfected with antibody-fragment or p47-FLAG plasmids; compared with scFv-RNase and scFab-RNase controls. The settings on record: partners not purified.

Another assay deals with p97 (endogenous) (human (endogenous in U2OS), UniProt P55072). In words: co-IP; co-IP of p97 from U2OS cells expressing scFv-A06 (Figure S10). As to conditions: partners not purified.
p97 (endogenous), sequence (P55072 whole entry): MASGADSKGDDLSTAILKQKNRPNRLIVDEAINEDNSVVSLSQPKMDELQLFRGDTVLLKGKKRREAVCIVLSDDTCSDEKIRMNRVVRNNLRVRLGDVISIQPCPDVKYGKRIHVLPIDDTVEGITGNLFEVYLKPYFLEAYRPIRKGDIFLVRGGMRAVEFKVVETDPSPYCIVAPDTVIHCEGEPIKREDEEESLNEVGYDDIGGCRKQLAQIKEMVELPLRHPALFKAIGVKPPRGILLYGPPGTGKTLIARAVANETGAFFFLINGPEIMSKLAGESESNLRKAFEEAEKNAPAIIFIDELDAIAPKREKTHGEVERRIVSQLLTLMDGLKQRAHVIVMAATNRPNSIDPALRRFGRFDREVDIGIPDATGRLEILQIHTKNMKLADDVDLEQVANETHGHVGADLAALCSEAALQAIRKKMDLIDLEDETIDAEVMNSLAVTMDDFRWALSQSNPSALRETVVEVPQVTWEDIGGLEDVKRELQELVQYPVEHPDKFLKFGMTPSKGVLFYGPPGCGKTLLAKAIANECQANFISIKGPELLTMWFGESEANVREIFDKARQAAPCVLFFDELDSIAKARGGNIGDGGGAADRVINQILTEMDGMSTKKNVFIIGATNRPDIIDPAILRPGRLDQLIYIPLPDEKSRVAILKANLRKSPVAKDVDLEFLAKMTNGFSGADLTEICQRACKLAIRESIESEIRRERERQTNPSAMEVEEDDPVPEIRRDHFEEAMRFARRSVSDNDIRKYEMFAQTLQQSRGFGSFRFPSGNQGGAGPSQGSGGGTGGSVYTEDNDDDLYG

full-length human p97, sequence (P55072 whole entry): as above

B1: full-length p47 (natural protein, human, UniProt Q9UNZ2 1-370, looked up)
chain: MAAERQEALREFVAVTGAEEDRARFFLESAGWDLQIALASFYEDGGDEDIVTISQATPSSVSRGTAPSDNRVTSFRDLIHDQDEDEEEEEGQRFYAGGSERSGQQIVGPPRKKSPNELVDDLFKGAKEHGAVAVERVTKSPGETSKPRPFAGGGYRLGAAPEEESAYVAGEKRQHSSQDVHVVLKLWKSGFSLDNGELRSYQDPSNAQFLESIRRGEVPAELRRLAHGGQVNLDMEDHRDEDFVKPKGAFKAFTGEGQKLGSTAPQVLSTSSPAQQAENEAKASSSILIDESEPTTNIQIRLADGGRLVQKFNHSHRISDIRLFIVDARPAMAATSFILMTTFPNKELADESQTLKEANLLNAVIVQRLT
For B1, in the assay with full-length human p97, the binding result is listed as “binds”.

B2: scFv-G08 (scFv, V domains shown)
VH: QVQLVESGGGLVQPGGSLRLSCAASGFNISYSYIHWVRQAPGKGLEWVAYIYPYSGSTYYADSVKGRFTISADTSKNTAYLQMNSLRAEDTAVYYCARDPHWAMDYWGQGTLVTVSS
VL: DIQMTQSPSSLSASVGDRVTITCRASQSVGSALAWYQQKPGKAPKLLIYSASSLYSGVPSRFSGSRSGTDFTLTISSLQPEDFATYYCQQSFSSVPFTFGQGTKVEIK
Regarding B2, the binding result in the assay with full-length p47 and with p47-UBX domain [1] was “binds” each time.

B3: scFv-A04 (antibody, V domains shown)
VH: QVQLVESGGGLVQPGGSLRLSCAASGFNVYSSSIHWVRQAPGKGLEWVASIYPSYGSTYYADSVKGRFTISADTSKNTAYLQMNSLRAEDTAVYYCARSYEWKYSYYRGGFDYWGQGTLVTVSS
VL: DIQMTQSPSSLSASVGDRVTITCRASQSVSSAVAWYQQKPGKAPKLLIYSASSLYSGVPSRFSGSRSGTDFTLTISSLQPEDFATYYCQQGYYLPVTFGQGTKVEIK
With B3, the binding result with p47-UBX domain [2] was “binds”.

B4: scFv-E04 (scFv, V domains shown)
VH: QVQLVESGGGLVQPGGSLRLSCAASGFNFSSYSIHWVRQAPGKGLEWVASISPYYGSTYYADSVKGRFTISADTSKNTAYLQMNSLRAEDTAVYYCARYKYYMSGRYTWALDYWGQGTLVTVSS
VL: DIQMTQSPSSLSASVGDRVTITCRASQSVSSAVAWYQQKPGKAPKLLIYSASSLYSGVPSRFSGSRSGTDFTLTISSLQPEDFATYYCQQEFFVPFTFGQGTKVEIK
For the molecule B4, the binding result in the assay with full-length p47 is “binds”. Further, the dissociation constant Kd in the assay with p37-UBX domain is around 4 nM; with p47-UBX domain [3] it was around 7 nM.

B5: scFab-NLS E04 with C-terminal HA tag, expressed in cells (Fab, V domains shown)
VH: EVQLVESGGGLVQPGGSLRLSCAASGFNFSSYSIHWVRQAPGKGLEWVASISPYYGSTYYADSVKGRFTISADTSKNTAYLQMNSLRAEDTAVYYCARYKYYMSGRYTWALDYWGQGTLVTVSS
VL: DIQMTQSPSSLSASVGDRVTITCRASQSVSSAVAWYQQKPGKAPKLLIYSASSLYSGVPSRFSGSRSGTDFTLTISSLQPEDFATYYCQQEFFVPFTFGQGTKVEIK
Turning to B5, the binding result with p47 (endogenous) is recorded as “binds”.

B6: scFv-E04 with C-terminal HA tag, expressed in cells (scFv, V domains shown)
VH: QVQLVESGGGLVQPGGSLRLSCAASGFNFSSYSIHWVRQAPGKGLEWVASISPYYGSTYYADSVKGRFTISADTSKNTAYLQMNSLRAEDTAVYYCARYKYYMSGRYTWALDYWGQGTLVTVSS
VL: DIQMTQSPSSLSASVGDRVTITCRASQSVSSAVAWYQQKPGKAPKLLIYSASSLYSGVPSRFSGSRSGTDFTLTISSLQPEDFATYYCQQEFFVPFTFGQGTKVEIK
Take B6: in the assay with p47 (endogenous), the binding result is reported as “binds”.

B7: scFab-E04 with C-terminal HA tag, expressed in cells (Fab, V domains shown)
VH: EVQLVESGGGLVQPGGSLRLSCAASGFNFSSYSIHWVRQAPGKGLEWVASISPYYGSTYYADSVKGRFTISADTSKNTAYLQMNSLRAEDTAVYYCARYKYYMSGRYTWALDYWGQGTLVTVSS
VL: DIQMTQSPSSLSASVGDRVTITCRASQSVSSAVAWYQQKPGKAPKLLIYSASSLYSGVPSRFSGSRSGTDFTLTISSLQPEDFATYYCQQEFFVPFTFGQGTKVEIK
With B7, the binding result in the assay with p47 (endogenous) was “binds”.

B8: scFv-A06 (scFv, V domains shown)
VH: QVQLVESGGGLVQPGGSLRLSCAASGFNISSYSMHWVRQAPGKGLEWVASISSSYGSTYYADSVKGRFTISADTSKNTAYLQMNSLRAEDTAVYYCARSDWYYGDAWGVPYYAFDYWGQGTLVTVSS
VL: DIQMTQSPSSLSASVGDRVTITCRASQSVGSALAWYQQKPGKAPKLLIYSASSLYSGVPSRFSGSRSGTDFTLTISSLQPEDFATYYCQQSWFLITFGQGTKVEIK
In the case of B8, the binding result with full-length p47 is recorded as “binds”; with p37-UBX domain, “no binding”. Besides, the Kd with p47-UBX domain [3] was around 3 nM.

B9: scFab-NLS A06 with C-terminal HA tag, expressed in cells (Fab, V domains shown)
VH: EVQLVESGGGLVQPGGSLRLSCAASGFNISSYSMHWVRQAPGKGLEWVASISSSYGSTYYADSVKGRFTISADTSKNTAYLQMNSLRAEDTAVYYCARSDWYYGDAWGVPYYAFDYWGQGTLVTVSS
VL: DIQMTQSPSSLSASVGDRVTITCRASQSVGSALAWYQQKPGKAPKLLIYSASSLYSGVPSRFSGSRSGTDFTLTISSLQPEDFATYYCQQSWFLITFGQGTKVEIK
With B9, in the assay with p47 (endogenous), the binding result is “binds”.

B10: scFab-A06 with C-terminal HA tag, expressed in cells (Fab, V domains shown)
VH: EVQLVESGGGLVQPGGSLRLSCAASGFNISSYSMHWVRQAPGKGLEWVASISSSYGSTYYADSVKGRFTISADTSKNTAYLQMNSLRAEDTAVYYCARSDWYYGDAWGVPYYAFDYWGQGTLVTVSS
VL: DIQMTQSPSSLSASVGDRVTITCRASQSVGSALAWYQQKPGKAPKLLIYSASSLYSGVPSRFSGSRSGTDFTLTISSLQPEDFATYYCQQSWFLITFGQGTKVEIK
In the case of B10, the binding result with p47 (endogenous) is given as “binds”.

B11: scFv-A06 with C-terminal HA tag, expressed in cells (scFv, V domains shown)
VH: QVQLVESGGGLVQPGGSLRLSCAASGFNISSYSMHWVRQAPGKGLEWVASISSSYGSTYYADSVKGRFTISADTSKNTAYLQMNSLRAEDTAVYYCARSDWYYGDAWGVPYYAFDYWGQGTLVTVSS
VL: DIQMTQSPSSLSASVGDRVTITCRASQSVGSALAWYQQKPGKAPKLLIYSASSLYSGVPSRFSGSRSGTDFTLTISSLQPEDFATYYCQQSWFLITFGQGTKVEIK
Consider B11, for which the binding result with p47 (endogenous) and in the assay with p97 (endogenous) was “binds” each time. Besides, in assay [4], the “reduction of the BRET ratio of the p97-N/p47-UBX pair” value is around 15%.

B12: scFv-B01 (scFv, V domains shown)
VH: QVQLVESGGGLVQPGGSLRLSCAASGFNISSYYMHWVRQAPGKGLEWVASIYPSYSSTSYADSVKGRFTISADTSKNTAYLQMNSLRAEDTAVYYCARSSDYDRYWYWSYDAFDYWGQGTLVTVSS
VL: DIQMTQSPSSLSASVGDRVTITCRASQSVGSALAWYQQKPGKAPKLLIYSASSLYSGVPSRFSGSRSGTDFTLTISSLQPEDFATYYCQQSWDLFTFGQGTKVEIK
In the case of B12, the binding result in the assay with full-length p47 and in the assay with p47-UBX domain [1] was “binds” each time.
